These results are taken from paper PMC5999986.

The target in the data set is DosR (DosRwt) (Mycobacterium tuberculosis, UniProt P9WMF9 1-217). The data set can be described thus: EMSA; 4, 8, 16 uM protein; 20 mM MgCl2; […]; ITC: 20 mM Tris pH 8.0, 200 mM NaCl, 25 C, […]. To be noted: protein: recombinant; tags: His6 (N-terminal from pET28a NdeI/HindIII; C-terminal His6 encoded by primer PTD2 in pT7-dosR); chain copies: 2; label: none (ethidium bromide stain); blunt.

B1: 20-bp DosR regulon consensus DNA (EM1/EM2) (dsDNA)
DNA 1: TTGGGGACTAAAGTCCCTAA
DNA 2: TTAGGGACTTTAGTCCCCAA
In the case of B1, the binding result is “binds”.
